Source: the domain aggregation screens of Martell et al. (2025)

Assay: soluble fraction after stress (log2 fold change); higher = more stays soluble; pooled small domains, quantitative proteomics
Details: stress: 75 degC
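Further: 20 min heating vs room temperature control held 20 min.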

Sequence | soluble fraction (log2)
HMHNLYAPTQKEVDHARRVVEAAEAAAREGLGVVSLNGKMVDGPVIDRARLVLSRAELSGIRE | -0.157
HMHNNTITLNKKTYVYTASGKKMSKYLGYTYINKGTTLNYYGTKNIKGKTFYYIGDHAYVNAANVGKVTN | -2.07
HMHNQIGDKIRELRTRSNLTQADLGKLVGVSMQAVSKWERGGTPDIDVLLSVAKYFNISLDEMVGRT | -1.51
HMHPEITLHPVRANIYSISVKNATSMEIYSVSGQLVGIRELKEGTNTLDLTGYINGVYIVNLQNKAFKLVK | -2.38
HMHPELSDSQRTLIALMASGLKDEAIAVEMGVGARTVRRKVQELYELLGVRTRFQAGVAANQRGW | -2.34
HMHPKDVPTRRELEVLQAVSEGLSTAEIGLRLDITENTVETFRRRLIQKFDAKNAIDLVVKAMAQGWIKV | -2.23
HMHQGTIEVGSIVHIEGQKALGTILSLTQREAIVGLGALKTTIPLKRLHLATEAEARRHKKSVTPQEAV | -0.66
HMHQIFAETVFEDIAFGPRNKGFNEEEVAKQVREAMAFVGLDYDTYAQRSPFQLSGGQMRRVAIAGVVA | 0.0104
HMHQKYIITGTRDTYVVSQGETLRTIAEHVYGSRGYARYIIEHNHITHPDDIPVGLTIRLPELELNPDYR | -1.9
HMHRAKRTKAQTQSSLESIEGIGPKTRKQLLVHFGGLAEVKAASVSELQKVKGISLDKAQKIYDFFHGS | -0.617
HMHRNLSFEEEKEFLSAYTKQAEAGQIVDLNEMKAAYIEKVGHSIGGSQIYRMLERHGWRKVM | -0.446
HMHSDSEIEKGYTDDGQKLSNVNGVYMTKSEMYNKGIVEKDPNTGEEVMGRNRVNPVTGELE | 0.442
HMHSDWITWWYLKDKRFDDDYSLWDRQPVHPEYFEVVKEFKAPPESNPGGLDEVKRILRTYIPDAFAP | -1.11
HMHSESAAHQRTSVELFARIPETGNLQSAQRHFDVINQFGRFPHRNKILQRPSSEQEEAFLRQPGSG | 0.265
HMHSILDDIPTVGPARRKALMRRYESLEAIRQATVDELKELPEINEASAEAIVSFFAGQAKEG | -0.306
HMHSRTWTSADGVKTFEGELQSYDAASGKVSVILPNHKRITFKQEKLSADDIAWLEKNGNRP | -0.033
HMHTGLTNYEYKQIKSSLLKILTQSESMRLGELVDKVDQFESEKVTTVIRFLVGNEELMLFDDTLTLKKQL | -0.202
HMHTTIIVASRDIAAGSVLTSHDLSSVAWVGGAVPKGSYTAADLAVGKTAFTAFQQGEPILESRLAS | -0.35
HMHVVVIDKQGALSYQGKAITLLDLKNIVIDVPKETPFLIKADKDIHLQSFVEVLDLIKTAGFKKVSLQ | -2.86
HMIAANMTISQRIAAALAEYGVMSVKDIAQEVLGATDKKDTEKIRVTLTRDHGKRFRTYSDGTWSLKDWRP | -2.19
HMIAAVIAQVANTNERIILEKRYLSFKSWDEIAVEMRISPRWAYTLHERALKAVDQVLSKQNNE | -4.19
HMIADDLKSLEGVDQDMLRDLAEAGINTRDDLAELAIDELIEITGVSTEEAEKVIMAARAHWFEEES | 0.318
HMIAKEDDGTAFLIDGKISSEEEFKTISKDDILEVFVYKETEIAQKKLDSINSINNTYYTSLIEILLKE | ≥ 1.04
HMIAKIEGQISYVGNRFLIVDVSGVGYKLFVTNEAISLSKVEESIKLWVHTAVRENSIDLYG | -1.7
HMIANDDEIRKVVLEVIEEQPKAVEDVKNGRDRILDFLVGQVMKKTRGKANPSLASNLMKEEIEK | 0.453

Sequence | soluble fraction (log2)
HMIANNFDEFVEKVSEAERKALNMPAGQEMTQKLLEMKLAANPNLTPEEWQRTKSEFMTFLFAVFVRE | -0.939
HMIAVLEEGSHFRAVNDVTGKPFGPEMVIKNGQVTAVGKTISTKPKNLLGKKEGTKFVISGKQYVIKDI | -0.0244
HMIDAHTALLAKRLEAKGMLPLTDKSSAEEIYAEFGISKKAFKKALGALYKERLVRIGEDGVVWI | -1.8
HMIDFIGLEAKLLSTISGEKMGNAEVIVDGNVMNIYVKSLDTSEIKFRENVLIIKQSDDKNYYLVAKP | -3.26
HMIDIDTILKKYKPGRRDELIPLMQEIQEVYGHLSEEAVVKIGTYVGLSTTKIYGLATFYDQFRF | -1.76
HMIDLGKSRTWHSENGRAIEARVINISEEQQTVEMQRVDGLKFELSWNQLSKADQTLLAEAAKKTALVA | -0.0567
HMIDLPDIDIDFAKRTGVLEHITHTPARLETGKQHNTGVYFTDIPRGVDGLATMDHKRAEQLGYFKLDML | 0.0214
HMIDNKIIRSLRQKRNMTLEELAKKANISVSYLSEIELGKKQPSLETINKLSQALNISREGLI | -0.0581
HMIDPHGSLTLDLRPRDARVEIIDSNKTYKPGVRLPMGEYAIAVSRRGYISETKRINIEYGDNRERVAL | 0.108
HMIDSDENERIKELIKALISETLKSRGVSPEVISDIKERVDRLHNEELPRFAAELKELISRN | -0.0979
HMIDSEEVMETIQDLGYSPVFDVKEKFYKIKEEQIGKITLEVHIILRYGMVDLVWIVRENGELLLG | -0.0952
HMIDTLEYIISEESKGLRADQAITMVNGEFSRSLIQKWIKKGSILVNGKKIKPRDILNLNDKVTINPEEN | -0.24
HMIEDMQQWIRQIREIVSNRLDLTRNISDDEIREVISDIVMEQSRQQYMSLNEKKTLMEGVFNSMR | -0.534
HMIEEIETQFLFDFGLIGHPNSAKIREKLSEALGIGYVNGKQLQKRLMMFGITKQQVVDVLTD | -4.78
HMIEMAGGYRKGDRVELHSLKGAAEHNGKQGTVVGPQGERVKVLLDDSDSKTLALKVTNLTKLESA | 0.0656
HMIEMGNRIRTLRKRRVGSQSEFAEKLDVSVVTISRIENGMTKIDAELLIKMSEVLQVPVNIILGM | -3.29
HMIENPGQTFERIAGKITRTLRTGPLRIQQLDLLFSESGEQVMDVLRAMAENGEILIKDDTIQWNGHN | -0.246
HMIERKLRKKEHFIASVGEKVKIKNFATETYKGELISADNEKVVVETEFGKEEITYDNILAAATYFE | -0.808
HMIFNENLKSAREKKGLSQKEVAEAIGVAKSTYSLYESGNREPNVQTIKRIADVLNVSADVLLGL | -0.136
HMIGELVVEDLAAASEINVDTIRYYQRLGLLEPPRRRGRRAVYDHTHLERLAEIRRLAGAGFTLAQIGRLK | -3.19
HMIGILSDREAEILALLDEGLTNKAIGRRLNLAEPTVKFHLKNLYAKLGVGRRQLAVNVAKGSGLLNSD | -1.4
HMIGIRLKELVLKNQSAWVGLRVSELDISRKTMIVMIRRGDKMLIPNGSTILRSGDVLLLYTR | -0.682
HMIGITTANLNVRTGTDTNYTSIAILPKGTKVNILEENVKPGWYKIQFDEIYAFVSSKYIKIQS | -3.56
HMIGMDMQELIGRYKGDPDEMGKIELAAMSMLKLSEDMSSDHVLQKSKLRQDGLWLLKYVQE | -0.637
HMIHEQSLHKIRNFIGSLPESLRTAFTLREQDGLSYEEIGKITNTPIGTVRSRIYRARESILDHINQE | -1.23
